Here are results for 14 molecules from patent US20110158985A1 (published 2011).

Assay [1] concerns the target T1, RSV F glycoprotein (NUF4) (respiratory syncytial virus).
T1 chain 1: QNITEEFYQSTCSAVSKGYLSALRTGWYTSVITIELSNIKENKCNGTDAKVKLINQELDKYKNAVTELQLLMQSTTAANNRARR
T1 chain 2: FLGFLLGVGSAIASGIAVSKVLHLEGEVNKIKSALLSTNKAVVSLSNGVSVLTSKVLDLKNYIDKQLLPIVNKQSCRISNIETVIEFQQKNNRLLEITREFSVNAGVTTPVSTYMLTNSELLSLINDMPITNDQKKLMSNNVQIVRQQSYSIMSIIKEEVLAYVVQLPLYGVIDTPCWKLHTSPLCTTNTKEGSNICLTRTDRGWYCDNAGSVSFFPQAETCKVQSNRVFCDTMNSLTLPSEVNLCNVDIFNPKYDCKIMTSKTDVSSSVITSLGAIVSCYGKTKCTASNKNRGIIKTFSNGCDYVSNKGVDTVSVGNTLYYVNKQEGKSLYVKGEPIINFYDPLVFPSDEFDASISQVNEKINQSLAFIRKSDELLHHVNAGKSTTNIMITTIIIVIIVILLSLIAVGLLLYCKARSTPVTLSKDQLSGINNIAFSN
The experiment in a line: SPR (BIAcore), mAb vs NUF4 (1:1). (In general: Surface plasmon resonance follows binding to a sensor surface in real time, without labels.)

For assay [2], the target named is T2, F protein of RSV (Long strain) (RSV (Long strain), UniProt P12568 26-574). In words: cell-based or functional assay.
A further assay addresses Bac-F (respiratory syncytial virus). In words: SPR (BIAcore), mAb vs Bac-F (1:1).
The target of assay [3] is T1, RSV F glycoprotein (NUF4). The experiment in a line: SPR (BIAcore), mAb vs NUF4 (2:1).
Assay [4] deals with T2, F protein of RSV (Long strain). In words: cell-based or functional assay. The source holds these as a separate data set.
Target sequence in this assay (P12568 26-574): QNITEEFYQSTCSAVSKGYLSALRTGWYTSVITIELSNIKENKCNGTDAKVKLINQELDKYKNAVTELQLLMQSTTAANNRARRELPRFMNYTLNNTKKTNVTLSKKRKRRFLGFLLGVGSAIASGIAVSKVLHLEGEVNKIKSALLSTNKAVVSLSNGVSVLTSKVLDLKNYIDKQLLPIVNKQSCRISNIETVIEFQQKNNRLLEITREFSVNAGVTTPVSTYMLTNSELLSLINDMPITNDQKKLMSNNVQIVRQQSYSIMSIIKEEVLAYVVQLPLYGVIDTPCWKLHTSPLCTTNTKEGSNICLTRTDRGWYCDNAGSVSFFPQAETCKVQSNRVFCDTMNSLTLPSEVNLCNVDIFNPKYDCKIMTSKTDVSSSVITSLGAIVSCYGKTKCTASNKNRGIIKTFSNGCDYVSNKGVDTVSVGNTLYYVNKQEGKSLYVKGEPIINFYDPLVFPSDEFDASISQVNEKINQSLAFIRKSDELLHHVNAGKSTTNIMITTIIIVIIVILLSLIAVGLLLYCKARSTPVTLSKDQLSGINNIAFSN
Assay [5] deals with T3, recombinant C-terminally truncated RSV (A2 strain) F protein (RSV (A2 strain), UniProt P03420 26-524).
T3 construct: extracellular domain; also called truncated F protein; extracellular domain of the F protein from RSV A2
The experiment in a line: SPR (BIAcore), IgG over immobilised F.

Assay [6] deals with T3, recombinant C-terminally truncated RSV …. The experiment in a line: SPR (BIAcore), Fab over immobilised F.
Assay [7] deals with T2, F protein of RSV (Long strain). In words: cell-based or functional assay. The source holds these as a separate data set.
The target of assay [8] is T3, recombinant C-terminally truncated RSV …. In words: SPR (BIAcore), Fab over immobilised F. This is another data set of the same source.
For assay [9] the target is unchanged. In words: SPR (BIAcore), Fab over immobilised F. This is another data set of the same source.
Target sequence in this assay (P03420 26-109, chain 1 of 2): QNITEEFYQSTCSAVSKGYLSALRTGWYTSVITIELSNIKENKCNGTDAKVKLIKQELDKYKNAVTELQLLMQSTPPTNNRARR
Target sequence in this assay (P03420 137-524, chain 2 of 2): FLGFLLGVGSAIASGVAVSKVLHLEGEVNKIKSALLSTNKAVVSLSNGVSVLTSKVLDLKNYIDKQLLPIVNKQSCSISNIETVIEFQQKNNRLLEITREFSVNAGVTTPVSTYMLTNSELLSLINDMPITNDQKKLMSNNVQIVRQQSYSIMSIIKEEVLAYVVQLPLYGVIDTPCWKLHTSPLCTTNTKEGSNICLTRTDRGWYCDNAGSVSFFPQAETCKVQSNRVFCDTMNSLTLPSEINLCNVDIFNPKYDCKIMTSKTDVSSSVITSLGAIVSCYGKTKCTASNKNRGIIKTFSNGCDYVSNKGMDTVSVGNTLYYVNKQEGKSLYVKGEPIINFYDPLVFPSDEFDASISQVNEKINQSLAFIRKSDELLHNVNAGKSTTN
A further assay deals with T4, murine FcRn (mouse, UniProt P01887 21-119).
T4 construct: also called mouse FcRn; muFcRn
T4 sequence: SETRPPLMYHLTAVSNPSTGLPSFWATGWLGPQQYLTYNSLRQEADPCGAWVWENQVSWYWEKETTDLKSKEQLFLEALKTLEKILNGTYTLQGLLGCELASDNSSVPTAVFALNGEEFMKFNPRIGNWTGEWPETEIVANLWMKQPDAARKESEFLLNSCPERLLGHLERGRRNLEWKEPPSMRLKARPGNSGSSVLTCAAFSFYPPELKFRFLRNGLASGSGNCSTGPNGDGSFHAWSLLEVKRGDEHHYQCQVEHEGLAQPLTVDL
T4 sequence (b2m): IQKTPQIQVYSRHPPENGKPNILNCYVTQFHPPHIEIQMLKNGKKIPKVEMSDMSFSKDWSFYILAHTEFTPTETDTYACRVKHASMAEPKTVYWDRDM
The experiment in a line: SPR (BIAcore 3000), FcRn over immobilised IgG1, pH 6.0, Scatchard.

Where a chain is given by its changes, count along the chain named. Names may count otherwise. “And” between values parts separate entries of the source, which are not always exact repeats. Equal values may be shown once. Read-outs that look alike come from different tables or passages of the source.

Chain of Bac-F (respiratory syncytial virus) (P03420 26-524): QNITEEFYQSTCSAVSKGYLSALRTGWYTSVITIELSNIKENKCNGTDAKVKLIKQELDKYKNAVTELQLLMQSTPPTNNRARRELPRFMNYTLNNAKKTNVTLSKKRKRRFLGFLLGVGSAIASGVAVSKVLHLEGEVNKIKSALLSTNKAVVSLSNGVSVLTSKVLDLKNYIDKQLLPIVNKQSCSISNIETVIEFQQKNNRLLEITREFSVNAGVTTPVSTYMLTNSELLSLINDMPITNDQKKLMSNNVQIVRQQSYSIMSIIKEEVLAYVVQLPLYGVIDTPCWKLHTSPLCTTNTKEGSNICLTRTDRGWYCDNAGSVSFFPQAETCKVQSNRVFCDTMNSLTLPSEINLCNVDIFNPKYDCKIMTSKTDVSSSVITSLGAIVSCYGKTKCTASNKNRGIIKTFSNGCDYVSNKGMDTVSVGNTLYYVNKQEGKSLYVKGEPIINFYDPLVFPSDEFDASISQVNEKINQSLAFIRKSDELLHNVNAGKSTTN
Experimental for murine FcRn: IgG1 variants was monitored by surface plasmon resonance detection using a BIAcore 3000 instrument (Pharmacia Biosensor, Uppsala, Sweden). […] The protein concentrations ranged from 3-5 μg/ml in 10 mM sodium acetate, pH 5.0. The activation period was set for 7 minutes at a flow rate of 10 μl/min and the immobilization period was set to between 10 and 20 minutes at a flow rate of 10 μl/min. […] Human and murine FcRn were buffer exchanged against 50 mM PBS buffer pH 6.0 containing 0.05% Tween 20. Dilutions were made in the same buffer. All binding experiments were performed at 25° C. with concentrations ranging from 120 to 1 μg/ml at a flow rate of 5 to 10 μl/min; data were collected for 25 to 50 minutes and three 1-minute pulses of PBS buffer pH 7.2 were used to regenerate the surfaces. FcRn was also flowed over an uncoated cell and the sensorgrams from these blank runs subtracted from those obtained with IgG1-coupled chips. Runs were analyzed using the software BIAevaluation 3.1 (Pharmacia). Association constants (KAs) were determined from Scatchard analysis by measuring the concentration of free reactants and complex at equilibrium after correction for nonspecific binding.

B1: P12f2 IgG (antibody, V domains shown)
VH: QVTLRESGPALVKPTQTLTLTCTFSGFSLSTPGMSVGWIRQPPGKALEWLADIWWDDKKHYNPSLKDRLTISKDTSKNQVVLKVTNMDPADTATYYCARDMIFNFYFDVWGQGTTVTVSS
VL: DIQMTQSPSTLSASVGDRVTITCSLSSRVGYMHWYQQKPGKAPKLLIYDTFYLSSGVPSRFSGSGSGTEFTLTISSLQPDDFATYYCFQGSGYPFTFGGGTKVEIKR
By Kd is commonly meant the constant that tells how readily two partners part at equilibrium. By koff is commonly meant the rate constant with which the complex falls apart. A word on the kon: it is the second-order rate constant of association. As for B1, in assay [1], the Kd amounted to 330 pM, the “fold in parentheses (palivizumab = 1)” value came to 26 fold, the koff is 0.000178 s⁻¹ and the on-rate (kon) amounted to 541000 M⁻¹ s⁻¹. Also, in assay [2], the “Microneutralization IC50, IgG” value is 0.0231 µg/ml and 0.15 nM. In the assay with Bac-F, the Kd was found to be 310 pM and the “fold in parentheses (palivizumab = 1)” value stood at 13 fold. Besides, in assay [3], binding was characterised by a dissociation constant (Kd) of 840 pM, the “fold in parentheses (palivizumab = 1)” value is 371 fold, the koff was 0.000236 s⁻¹ and the on-rate (kon) was 282000 M⁻¹ s⁻¹. In [4], the “Mean IC50 (Control)” value worked out at 0.0223 µg/mL and the “Mean IC50 (Curve)” value worked out at 0.0231 µg/mL. Further, in assay [5], the Kd is 314 pM, the koff turned out to be 0.000128 s⁻¹ and the kon was determined as 407000 M⁻¹ s⁻¹.

B2: S32A Fab (Fab, name in Kabat numbering, V domains shown)
VH: B1 VH with P32A, H60D, D67S, D100S, F103T, F105W
VL: DIQMTQSPSTLSASVGDRVTITCSASSSVGYMHWYQQKPGKAPKLLIYDTSKLASGVPSRFSGSGSGTEFTLTISSLQPDDFATYYCFQGSGYPFTFGGGTKVEIK
As for B2, in [6], the “fold improvement in affinity over 493L1FR Fab” value was in the range of 3 to 7 fold. Besides, the “Microneutralization IC50, Fab” value in [7] was 4.85 µg/ml and 97 nM. Also, in assay [8], the Kd came out at 470 pM, the koff was 9.3e-05 s⁻¹ and the kon is 196000 M⁻¹ s⁻¹.

B3: G93F Fab (Fab, name in Kabat numbering, V domains shown)
VH: B1 VH with P32S, H60D, D67S, D100S, F103T, F105W
VL: B2 VL with G92F
With B3, in assay [6], the “fold improvement in affinity over 493L1FR Fab” value was 3 to 7 fold. For the same molecule, the “Microneutralization IC50, Fab” value in assay [7] was 8.84 µg/ml and 177 nM. In assay [8], the Kd came out at 1070 pM, the koff was 0.000174 s⁻¹ and the kon turned out to be 163000 M⁻¹ s⁻¹.

B4: AFFY Fab (Fab, name in Kabat numbering, V domains shown)
VH: B1 VH with P32A, H60D, D67S, D100S, F103T
VL: B2 VL with S51F, G92Y
Take B4: the “fold higher affinity than palivizumab Fab” value in assay [6] is over 117 fold. In addition, the “Microneutralization IC50, Fab” value in assay [7] is 0.0754 µg/ml and 1.51 nM. Besides, in assay [8], the equilibrium dissociation constant (Kd) is at most 41 pM, the off-rate (koff) was at most 5e-06 s⁻¹ and the association rate constant (kon) stood at 122000 M⁻¹ s⁻¹.

B5: AFFG Fab (Fab, name in Kabat numbering, V domains shown)
VH: B1 VH with P32A, H60D, D67S, D100S, F103T
VL: B2 VL with S51F
Take B5: the “fold higher affinity than palivizumab Fab” value in assay [6] was over 117 fold. For the same molecule, the “Microneutralization IC50, Fab” value in [7] was 0.249 µg/ml and 4.98 nM. Also, in assay [8], the Kd was at most 38 pM, the koff is at most 5e-06 s⁻¹ and the kon is 133000 M⁻¹ s⁻¹.

B6: PFFF Fab (Fab, name in Kabat numbering, V domains shown)
VH: B1 VH with H60D, D67S, D100S, F103T
VL: B2 VL with S51F, G92F
In the case of B6, the “fold higher affinity than palivizumab Fab” value in [6] is over 117 fold. Moreover, in assay [8], the Kd was at most 45 pM, the off-rate (koff) is at most 5e-06 s⁻¹ and the kon was determined as 110000 M⁻¹ s⁻¹.

B7: W100F Fab (Fab, name in Kabat numbering, V domains shown)
VH: B1 VH with P32S, H60D, D67S, D100S, F103T
VL: B2 VL
Take B7: in assay [6], the “fold improvement in koff (against palivizumab Fab)” value came to 8 fold. In addition, the “Microneutralization IC50, Fab” value in assay [7] is 2.6 µg/ml and 52 nM. Moreover, in [8], the Kd turned out to be 510 pM, the koff is 8.4e-05 s⁻¹ and the kon is 165000 M⁻¹ s⁻¹.

B8: P12f4 IgG (antibody, V domains shown)
VH: B1 VH with D57G
VL: B1 VL with F51R, Y52G, S54P
With B8, in assay [1], the Kd came to 240 pM, the “fold in parentheses (palivizumab = 1)” value worked out at 36 fold, the off-rate (koff) came to 0.000229 s⁻¹ and the kon was 943000 M⁻¹ s⁻¹. Further, in assay [2], the “Microneutralization IC50, IgG” value is 0.242 µg/ml and 0.16 nM. In addition, in the assay with Bac-F, the dissociation constant Kd is 110 pM and the “fold in parentheses (palivizumab = 1)” value came out at 35 fold. For the same molecule, in assay [3], the Kd came out at 2330 pM, the “fold in parentheses (palivizumab = 1)” value was determined as 134 fold, the koff was 0.000636 s⁻¹ and the kon is 273000 M⁻¹ s⁻¹. Moreover, in assay [4], the “Mean IC50 (Control)” value came to 0.0235 µg/mL and the “Mean IC50 (Curve)” value is 0.0242 µg/mL. Further, in assay [5], the Kd was 112 pM, the koff worked out at 5.55e-05 s⁻¹ and the on-rate constant (kon) was determined as 495000 M⁻¹ s⁻¹.

B9: AFSF Fab (Fab, name in Kabat numbering, V domains shown)
VH: B1 VH with P32A, H60D, D67S, D100S, F103T
VL: B2 VL with G92F
Turning to B9, the “fold higher affinity than palivizumab Fab” value in assay [6] is over 117 fold. In addition, the “Microneutralization IC50, Fab” value in assay [7] is 0.0908 µg/ml and 1.82 nM. In addition, in assay [8], the dissociation constant (Kd) was at most 44 pM, the off-rate (koff) is at most 5e-06 s⁻¹ and the kon is 113000 M⁻¹ s⁻¹.

B10: A17f5 Fab (Fab, V domains shown)
VH: B1 VH with P32A, H60D, F105W
VL: B2 VL with A25L, S28R, S51F, K52R, L53H, A54T
On to B10, for which, in [2], the “Microneutralization IC50, Fab” value is 0.106 µg/ml and 2.12 nM. Further, in [6], the “fold improvement in koff (against palivizumab Fab)” value is 8 fold and the “fold increase in kon over W100F” value amounted to 3 fold. Moreover, in assay [9], the Kd was determined as 154 pM, the koff was found to be 8.4e-05 s⁻¹ and the kon was determined as 544000 M⁻¹ s⁻¹.

B11: human IgG1 MEDI-493 (palivizumab) H433K/N434F/Y436H (antibody)
heavy: QVTLRESGPALVKPTQTLTLTCTFSGFSLSTSGMSVGWIRQPPGKALEWLADIWWDDKKDYNPSLKSRLTISKDTSKNQVVLKVTNMDPADTATYYCARSMITNWYFDVWGAGTTVTVSSASTKGPSVFPLAPSSKSTSGGTAALGCLVKDYFPEPVTVSWNSGALTSGVHTFPAVLQSSGLYSLSSVVTVPSSSLGTQTYICNVNHKPSNTKVDKRVEPKSCDKTHTCPPCPAPELLGGPSVFLFPPKPKDTLMISRTPEVTCVVVDVSHEDPEVKFNWYVDGVEVHNAKTKPREEQYNSTYRVVSVLTVLHQDWLNGKEYKCKVSNKALPAPIEKTISKAKGQPREPQVYTLPPSREEMTKNQVSLTCLVKGFYPSDIAVEWESNGQPENNYKTTPPVLDSDGSFFLYSKLTVDKSRWQQGNVFSCSVMHEALKFHHTQKSLSLSPGK
light: DIQMTQSPSTLSASVGDRVTITCKCQLSVGYMHWYQQKPGKAPKLLIYDTSKLASGVPSRFSGSGSGTEFTLTISSLQPDDFATYYCFQGSGYPFTFGGGTKLEIKRTVAAPSVFIFPPSDEQLKSGTASVVCLLNNFYPREAKVQWKVDNALQSGNSQESVTEQDSKDSTYSLSSTLTLSKADYEKHKVYACEVTHQGLSSPVTKSFNRGEC
In the assay with murine FcRn, B11 came in with a Kd of 14000 pM and a ΔΔG of 1.8 kcal/mol.

B12: human IgG1 MEDI-493 (palivizumab) N434F/Y436H (antibody)
heavy: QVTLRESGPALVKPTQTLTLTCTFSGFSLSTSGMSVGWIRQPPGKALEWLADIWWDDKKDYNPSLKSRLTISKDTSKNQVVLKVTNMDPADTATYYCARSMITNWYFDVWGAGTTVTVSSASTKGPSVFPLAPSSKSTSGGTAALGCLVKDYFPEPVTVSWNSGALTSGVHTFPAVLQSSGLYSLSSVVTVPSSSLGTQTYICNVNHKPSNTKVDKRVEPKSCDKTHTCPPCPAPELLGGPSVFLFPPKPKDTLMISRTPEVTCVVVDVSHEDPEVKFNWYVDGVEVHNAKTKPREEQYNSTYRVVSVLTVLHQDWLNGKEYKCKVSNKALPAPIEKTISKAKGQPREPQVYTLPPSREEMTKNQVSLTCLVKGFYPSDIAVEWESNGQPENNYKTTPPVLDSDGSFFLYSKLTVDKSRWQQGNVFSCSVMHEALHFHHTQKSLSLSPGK
light: B11 light
As to B12, in the assay with murine FcRn, binding was put at a Kd of 9000 pM and the ΔΔG was 2 kcal/mol.

B13: human IgG1 MEDI-493 (palivizumab) M252Y/T256Q (antibody)
heavy: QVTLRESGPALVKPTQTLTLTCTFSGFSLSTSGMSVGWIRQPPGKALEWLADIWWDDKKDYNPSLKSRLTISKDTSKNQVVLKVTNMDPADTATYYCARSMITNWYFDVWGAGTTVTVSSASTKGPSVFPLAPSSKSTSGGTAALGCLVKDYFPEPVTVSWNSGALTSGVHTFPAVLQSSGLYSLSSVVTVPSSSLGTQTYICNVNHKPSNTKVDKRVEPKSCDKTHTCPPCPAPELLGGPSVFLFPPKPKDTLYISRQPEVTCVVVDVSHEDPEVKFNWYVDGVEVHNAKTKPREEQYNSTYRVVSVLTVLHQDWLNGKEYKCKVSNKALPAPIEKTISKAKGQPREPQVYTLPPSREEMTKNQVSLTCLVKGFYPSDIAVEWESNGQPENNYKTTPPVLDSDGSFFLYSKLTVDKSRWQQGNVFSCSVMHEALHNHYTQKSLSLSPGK
light: B11 light
Consider B13, for which, in the assay with murine FcRn, the affinity, expressed as Kd, was 39000 pM and the ΔΔG was 1.1 kcal/mol.

B14: human IgG1 MEDI-493 (palivizumab) M252W (antibody)
heavy: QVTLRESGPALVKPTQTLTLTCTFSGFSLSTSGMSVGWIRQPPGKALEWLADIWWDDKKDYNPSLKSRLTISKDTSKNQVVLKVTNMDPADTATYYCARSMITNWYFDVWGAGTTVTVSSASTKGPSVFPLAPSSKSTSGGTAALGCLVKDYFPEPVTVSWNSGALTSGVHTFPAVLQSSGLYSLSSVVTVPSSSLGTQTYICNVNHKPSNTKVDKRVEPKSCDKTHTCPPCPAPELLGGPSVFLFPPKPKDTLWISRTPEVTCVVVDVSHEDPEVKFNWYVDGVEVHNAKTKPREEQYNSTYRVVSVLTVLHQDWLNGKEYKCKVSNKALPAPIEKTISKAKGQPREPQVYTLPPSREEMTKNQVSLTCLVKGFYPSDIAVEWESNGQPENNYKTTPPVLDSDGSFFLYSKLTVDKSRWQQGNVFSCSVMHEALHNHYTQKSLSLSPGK
light: B11 light
In the assay with murine FcRn, B14 displayed a Kd of 30000 pM and a ΔΔG of 1.3 kcal/mol.
